Values of other authors as cited in paper PMC6953883, “Alterations of aqueous humor Aβ levels in Aβ-infused and transgenic mouse models of Alzheimer disease” (PLoS ONE, 2020).

Conditions: previous studies

Aβ: amyloid-β peptide of cited efflux and retention studies; Shibata et al. used Aβ(1-40)
half-time of Aβ efflux from CSF to blood: 34.63 min
